In PMC12318175:
Where two headings read alike, the source gives them in different places.

Tests used:
GST-OGG1 [1] = biological target: T1, GST-OGG1 (mouse, UniProt O08760 1-345); test: EMSA
GST-OGG1 [2] = biological target: T1, GST-OGG1; test: EMSA; remark: listed apart in the source

T1 sequence (O08760 whole entry): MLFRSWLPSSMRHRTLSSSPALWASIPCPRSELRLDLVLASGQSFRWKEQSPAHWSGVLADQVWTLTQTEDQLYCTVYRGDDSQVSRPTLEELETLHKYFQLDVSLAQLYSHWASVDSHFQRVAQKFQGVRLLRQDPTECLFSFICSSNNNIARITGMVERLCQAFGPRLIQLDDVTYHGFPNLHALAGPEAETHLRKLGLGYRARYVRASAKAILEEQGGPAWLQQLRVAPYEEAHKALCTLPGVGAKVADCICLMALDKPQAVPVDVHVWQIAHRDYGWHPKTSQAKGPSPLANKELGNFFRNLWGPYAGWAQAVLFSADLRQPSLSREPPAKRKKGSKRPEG

| Binder | binding result (GST-OGG1 [1]) | binding result (GST-OGG1 [2]) |
| --- | --- | --- |
| Cy5-WT (Foxp3 pro) (dsDNA) DNA 1: AAGTGTGGGTATGGGAGCCAGACTGTCTGGAACAACCTA DNA 2: TAGGTTGTTCCAGACAGTCTCGCTCCCATACCCACACTT | no binding |  |
| Cy5-5mC8-oxoG/GC (Foxp3 CNS2) (dsDNA, 5mC at sense C22; 8-oxoG at sense G23) DNA 1: GCCGATGAAGCCCAATGCATCCGGCCGCCATGACGTCA DNA 2: TGACGTCATGGCGGCCGGATGCATTGGGCTTCATCGGC |  | binds |
